T1: FcγRIIB (human, UniProt P31994 43-217, biotin-labeled)
T1 construct: extracellular domain; Bought protein; also called CD32b
T1 sequence (looked up): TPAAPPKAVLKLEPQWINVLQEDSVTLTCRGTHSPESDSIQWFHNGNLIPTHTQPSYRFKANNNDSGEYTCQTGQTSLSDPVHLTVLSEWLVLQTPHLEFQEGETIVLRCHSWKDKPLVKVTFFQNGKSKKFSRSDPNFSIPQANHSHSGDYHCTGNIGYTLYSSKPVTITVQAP

T2: FcγRIIA^131H (human, UniProt P12318 34-217, biotin-labeled)
T2 construct: extracellular domain; Bought protein; also called RIIAH
T2 sequence (looked up): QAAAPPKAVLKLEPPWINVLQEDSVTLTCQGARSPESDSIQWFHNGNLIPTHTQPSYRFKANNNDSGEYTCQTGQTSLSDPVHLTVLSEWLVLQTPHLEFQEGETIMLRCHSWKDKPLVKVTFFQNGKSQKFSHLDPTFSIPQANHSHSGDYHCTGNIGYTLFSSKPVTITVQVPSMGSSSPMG

T3: FcγRIIA^131R (human, UniProt P12318 34-217, biotin-labeled)
T3 construct: extracellular domain; Bought protein; also called RIIAR
T3 sequence (looked up): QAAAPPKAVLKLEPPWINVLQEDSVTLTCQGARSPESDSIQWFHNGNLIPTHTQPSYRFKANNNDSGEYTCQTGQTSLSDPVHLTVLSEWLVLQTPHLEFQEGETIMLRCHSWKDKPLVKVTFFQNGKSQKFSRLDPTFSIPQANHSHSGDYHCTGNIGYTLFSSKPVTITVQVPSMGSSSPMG


Tests used:
FcγRIIB [1] = target: T1, FcγRIIB; experiment: ELISA; relative affinity to FcγRIIB over that to FcγRIIA131R
Description: One hundred μl (2 μg/mL) of antibody or mutant thereof were added to the enzyme-linked plate to be coated overnight, then the supernatant was discarded. The plate was blocked with PBS containing 1% BSA for 2 hours, and washed with PBST (PBS containing 0.05% Tween 20). Biotin-labeled FcγR extracellular domain protein (Beijing Sino Biological Co., Ltd) of appropriate concentration was added and incubated at room temperature for 1 hour, then the supernatant was discarded and the plate was washed with PBST. The Biotin-labeled protein was detected by incubating with Streptavidin-HRP (BD BioSciences) at room temperature for 1 hour. The supernatant was removed, and the color-developing solution was added for color development for 20-40 minutes to determine the absorbance of 650 nm (A650).
Anti-human OX40 antibodies containing these new Fc mutation combinations are expressed and the binding property of the mutant antibody to FcγR are analyzed by Enzyme-linked immunosorbent assay (ELISA).

FcγRIIA^131H = target: T2, FcγRIIA^131H; experiment: ELISA, coated antibody, biotin-FcγR;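 for Absorbance value: antibody coated at 2 µg/mL at 100 µL per well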
FcγRIIB [2] = target: T1, FcγRIIB; experiment: ELISA, coated antibody, biotin-FcγR;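 for Absorbance value: antibody coated at 2 µg/mL at 100 µL per well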
FcγRIIIA^158F = target: T4, FcγRIIIA^158F (human, UniProt P08637 17-208, biotin-labeled); experiment: ELISA, coated antibody, biotin-FcγR;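 for Absorbance value: antibody coated at 2 µg/mL at 100 µL per well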
T4 construct: extracellular domain; Bought protein; also called RIIIAF

FcγRIIA^131R = target: T3, FcγRIIA^131R; experiment: ELISA, coated antibody, biotin-FcγR;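 for Absorbance value: antibody coated at 2 µg/mL at 100 µL per well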
FcγRI = target: T5, FcγRI (human, UniProt P12314 16-292, biotin-labeled); experiment: ELISA, coated antibody, biotin-FcγR;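 for Absorbance value: antibody coated at 2 µg/mL at 100 µL per well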
T5 construct: extracellular domain; Bought protein; also called CD64

FcγRIIIA^158V = target: T6, FcγRIIIA^158V (human, UniProt P08637 17-208, biotin-labeled); experiment: ELISA, coated antibody, biotin-FcγR;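 for Absorbance value: antibody coated at 2 µg/mL at 100 µL per well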
T6 construct: extracellular domain; Bought protein; also called RIIIAV; CD16a 158V
T6 sequence (P08637 17-208 F176V): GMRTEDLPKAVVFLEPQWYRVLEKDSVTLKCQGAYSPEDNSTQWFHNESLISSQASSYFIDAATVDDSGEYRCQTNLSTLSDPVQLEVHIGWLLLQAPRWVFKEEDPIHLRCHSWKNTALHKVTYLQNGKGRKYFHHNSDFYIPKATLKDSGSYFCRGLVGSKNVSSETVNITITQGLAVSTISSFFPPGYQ

T4 sequence (P08637 17-208): as the sequence (P08637 17-208 F176V) above, with V160F counted along it
T5 sequence (P12314 16-292): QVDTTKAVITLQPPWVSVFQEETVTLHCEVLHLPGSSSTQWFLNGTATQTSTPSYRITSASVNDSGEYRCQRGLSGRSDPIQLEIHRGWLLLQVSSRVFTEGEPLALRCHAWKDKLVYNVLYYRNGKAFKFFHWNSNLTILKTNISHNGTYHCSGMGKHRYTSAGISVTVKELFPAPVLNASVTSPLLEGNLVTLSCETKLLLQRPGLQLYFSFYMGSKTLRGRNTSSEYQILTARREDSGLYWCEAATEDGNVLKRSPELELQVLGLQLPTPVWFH

Binder | RIIB/RIIAR (FcγRIIB [1]) [ratio] | Absorbance value (FcγRIIA^131H) [A650] | Relative binding affinity RIIAH/G1 (FcγRIIA^131H) [ratio] | Absorbance value (FcγRIIB [2]) [A650] | Increased factor of RIIB binding compared with wild-type IgG2 (FcγRIIB [2]) [fold] | Relative binding affinity RIIB/G1 (FcγRIIB [2]) [ratio] | Absorbance value (FcγRIIIA^158F) [A650] | Relative binding affinity RIIIAF/G1 (FcγRIIIA^158F) [ratio] | Absorbance value (FcγRIIA^131R) [A650] | Relative binding affinity RIIAR/G1 (FcγRIIA^131R) [ratio] | Absorbance value (FcγRI) [A650] | Relative binding affinity RI/G1 (FcγRI) [ratio] | Absorbance value (FcγRIIIA^158V) [A650] | Relative binding affinity RIIIAV/G1 (FcγRIIIA^158V) [ratio]
anti-human OX40 IgG2 antibody Mut_17 (V266L/S267E/H268S/E269V) (antibody, name in EU numbering, Substitutions in Eu numbering; entries include an unstated signal peptide) heavy: QVQLQESGPGLVKPSGTLSLTCAVSGGSISSSIWWSWVRQPPGKGLEWIGEIHHSGNTNCNPSLKSRVTISIDKSKNQFSLKLTSVTAADTAVYYCARAGTGTTLDYWGQGTLVTVSSASTKGPSVFPLAPCSRSTSESTAALGCLVKDYFPEPVTVSWNSGALTSGVHTFPAVLQSSGLYSLSSVVTVPSSNFGTQTYTCNVDHKPSNTKVDKTVERKCCVECPPCPAPPVAGPSVFLFPPKPKDTLMISRTPEVTCVVVDLESVDPEVQFNWYVDGVEVHNAKTKPREEQFNSTFRVVSVLTVVHQDWLNGKEYKCKVSNKGLPAPIEKTISKTKGQPREPQVYTLPPSREEMTKNQVSLTCLVKGFYPSDIAVEWESNGQPENNYKTTPPMLDSDGSFFLYSKLTVDKSRWQQGNVFSCSVMHEALHNHYTQKSLSLSPGK light: EIVLTQSPGTLSLSPGERATLSCRASQSVSGDYLAWYQQKLGQAPRLLIYGASIRATGIPDRFSGSGSGTDFTLTISKLEPEDFAVYYCQQYGSSPLTFGGGTKVEIKRTVAAPSVFIFPPSDEQLKSGTASVVCLLNNFYPREAKVQWKVDNALQSGNSQESVTEQDSKDSTYSLSSTLTLSKADYEKHKVYACEVTHQGLSSPVTKSFNRGEC | 0.83 | 0.54 | 0.95 | 1.19 | 15.9 | 1.58 | 0.09 | 0.49 | 0.5 | 1.9 | 0.14 | 0.05 | 0.06 | 0.06
anti-human OX40 IgG2 antibody Mut_18 (P233G/S267E) (antibody, Substitutions in Eu numbering; entries include an unstated signal peptide) heavy: QVQLQESGPGLVKPSGTLSLTCAVSGGSISSSIWWSWVRQPPGKGLEWIGEIHHSGNTNCNPSLKSRVTISIDKSKNQFSLKLTSVTAADTAVYYCARAGTGTTLDYWGQGTLVTVSSASTKGPSVFPLAPCSRSTSESTAALGCLVKDYFPEPVTVSWNSGALTSGVHTFPAVLQSSGLYSLSSVVTVPSSNFGTQTYTCNVDHKPSNTKVDKTVERKCCVECPPCPAPGVAGPSVFLFPPKPKDTLMISRTPEVTCVVVDVEHEDPEVQFNWYVDGVEVHNAKTKPREEQFNSTFRVVSVLTVVHQDWLNGKEYKCKVSNKGLPAPIEKTISKTKGQPREPQVYTLPPSREEMTKNQVSLTCLVKGFYPSDIAVEWESNGQPENNYKTTPPMLDSDGSFFLYSKLTVDKSRWQQGNVFSCSVMHEALHNHYTQKSLSLSPGK light: EIVLTQSPGTLSLSPGERATLSCRASQSVSGDYLAWYQQKLGQAPRLLIYGASIRATGIPDRFSGSGSGTDFTLTISKLEPEDFAVYYCQQYGSSPLTFGGGTKVEIKRTVAAPSVFIFPPSDEQLKSGTASVVCLLNNFYPREAKVQWKVDNALQSGNSQESVTEQDSKDSTYSLSSTLTLSKADYEKHKVYACEVTHQGLSSPVTKSFNRGEC | 1.03 | 0.38 | 0.67 | 0.78 | 10.4 | 1.04 | 0.09 | 0.47 | 0.26 | 1 | 0.14 | 0.05 | 0.08 | 0.09

Other lines, results leading:

RIIB/RIIAR (FcγRIIB [1]) [ratio] | Absorbance value (FcγRIIA^131H) [A650] | Relative binding affinity RIIAH/G1 (FcγRIIA^131H) [ratio] | Absorbance value (FcγRIIB [2]) [A650] | Increased factor of RIIB binding compared with wild-type IgG2 (FcγRIIB [2]) [fold] | Relative binding affinity RIIB/G1 (FcγRIIB [2]) [ratio] | Absorbance value (FcγRIIIA^158F) [A650] | Relative binding affinity RIIIAF/G1 (FcγRIIIA^158F) [ratio] | Absorbance value (FcγRIIA^131R) [A650] | Relative binding affinity RIIAR/G1 (FcγRIIA^131R) [ratio] | Absorbance value (FcγRI) [A650] | Relative binding affinity RI/G1 (FcγRI) [ratio] | Absorbance value (FcγRIIIA^158V) [A650] | Relative binding affinity RIIIAV/G1 (FcγRIIIA^158V) [ratio] | Binder
1 | 0.33 | 0.58 | 0.82 | 11 | 1.09 | 0.07 | 0.38 | 0.28 | 1.08 | 0.11 | 0.04 | 0.07 | 0.07 | anti-human OX40 IgG2 antibody Mut_19 (V266L/S267E/H268S/E269V/P271C) (antibody, name in EU numbering, Substitutions in Eu numbering; entries include an unstated signal peptide) heavy: QVQLQESGPGLVKPSGTLSLTCAVSGGSISSSIWWSWVRQPPGKGLEWIGEIHHSGNTNCNPSLKSRVTISIDKSKNQFSLKLTSVTAADTAVYYCARAGTGTTLDYWGQGTLVTVSSASTKGPSVFPLAPCSRSTSESTAALGCLVKDYFPEPVTVSWNSGALTSGVHTFPAVLQSSGLYSLSSVVTVPSSNFGTQTYTCNVDHKPSNTKVDKTVERKCCVECPPCPAPPVAGPSVFLFPPKPKDTLMISRTPEVTCVVVDLESVDCEVQFNWYVDGVEVHNAKTKPREEQFNSTFRVVSVLTVVHQDWLNGKEYKCKVSNKGLPAPIEKTISKTKGQPREPQVYTLPPSREEMTKNQVSLTCLVKGFYPSDIAVEWESNGQPENNYKTTPPMLDSDGSFFLYSKLTVDKSRWQQGNVFSCSVMHEALHNHYTQKSLSLSPGK light: EIVLTQSPGTLSLSPGERATLSCRASQSVSGDYLAWYQQKLGQAPRLLIYGASIRATGIPDRFSGSGSGTDFTLTISKLEPEDFAVYYCQQYGSSPLTFGGGTKVEIKRTVAAPSVFIFPPSDEQLKSGTASVVCLLNNFYPREAKVQWKVDNALQSGNSQESVTEQDSKDSTYSLSSTLTLSKADYEKHKVYACEVTHQGLSSPVTKSFNRGEC
0.85 | 0.48 | 0.85 | 1.13 | 15.1 | 1.5 | 0.06 | 0.31 | 0.46 | 1.76 | 0.12 | 0.05 | 0.05 | 0.06 | anti-human OX40 IgG2 antibody Mut_20 (V266L/S267E/H268S/E269A/P271C) (antibody, name in EU numbering, Substitutions in Eu numbering; entries include an unstated signal peptide) heavy: QVQLQESGPGLVKPSGTLSLTCAVSGGSISSSIWWSWVRQPPGKGLEWIGEIHHSGNTNCNPSLKSRVTISIDKSKNQFSLKLTSVTAADTAVYYCARAGTGTTLDYWGQGTLVTVSSASTKGPSVFPLAPCSRSTSESTAALGCLVKDYFPEPVTVSWNSGALTSGVHTFPAVLQSSGLYSLSSVVTVPSSNFGTQTYTCNVDHKPSNTKVDKTVERKCCVECPPCPAPPVAGPSVFLFPPKPKDTLMISRTPEVTCVVVDLESADCEVQFNWYVDGVEVHNAKTKPREEQFNSTFRVVSVLTVVHQDWLNGKEYKCKVSNKGLPAPIEKTISKTKGQPREPQVYTLPPSREEMTKNQVSLTCLVKGFYPSDIAVEWESNGQPENNYKTTPPMLDSDGSFFLYSKLTVDKSRWQQGNVFSCSVMHEALHNHYTQKSLSLSPGK light: EIVLTQSPGTLSLSPGERATLSCRASQSVSGDYLAWYQQKLGQAPRLLIYGASIRATGIPDRFSGSGSGTDFTLTISKLEPEDFAVYYCQQYGSSPLTFGGGTKVEIKRTVAAPSVFIFPPSDEQLKSGTASVVCLLNNFYPREAKVQWKVDNALQSGNSQESVTEQDSKDSTYSLSSTLTLSKADYEKHKVYACEVTHQGLSSPVTKSFNRGEC
1.03 | 0.09 | 0.16 | 0.32 | 4.23 | 0.42 | 0.06 | 0.31 | 0.11 | 0.41 | 0.16 | 0.06 | 0.06 | 0.06 | anti-human OX40 IgG2 antibody Mut_21 (S267V/S298G/L328W) (antibody, name in EU numbering, Substitutions in Eu numbering; entries include an unstated signal peptide) heavy: QVQLQESGPGLVKPSGTLSLTCAVSGGSISSSIWWSWVRQPPGKGLEWIGEIHHSGNTNCNPSLKSRVTISIDKSKNQFSLKLTSVTAADTAVYYCARAGTGTTLDYWGQGTLVTVSSASTKGPSVFPLAPCSRSTSESTAALGCLVKDYFPEPVTVSWNSGALTSGVHTFPAVLQSSGLYSLSSVVTVPSSNFGTQTYTCNVDHKPSNTKVDKTVERKCCVECPPCPAPPVAGPSVFLFPPKPKDTLMISRTPEVTCVVVDVVHEDPEVQFNWYVDGVEVHNAKTKPREEQFNGTFRVVSVLTVVHQDWLNGKEYKCKVSNKGWPAPIEKTISKTKGQPREPQVYTLPPSREEMTKNQVSLTCLVKGFYPSDIAVEWESNGQPENNYKTTPPMLDSDGSFFLYSKLTVDKSRWQQGNVFSCSVMHEALHNHYTQKSLSLSPGK light: EIVLTQSPGTLSLSPGERATLSCRASQSVSGDYLAWYQQKLGQAPRLLIYGASIRATGIPDRFSGSGSGTDFTLTISKLEPEDFAVYYCQQYGSSPLTFGGGTKVEIKRTVAAPSVFIFPPSDEQLKSGTASVVCLLNNFYPREAKVQWKVDNALQSGNSQESVTEQDSKDSTYSLSSTLTLSKADYEKHKVYACEVTHQGLSSPVTKSFNRGEC
